Biological target: wild-type T7 RNA polymerase (Enterobacteria phage T7 (gene from E. …, UniProt P00573 1-883))
Assay: EMSA; 2.5 uM dsDNA; half-saturation compared only in figure, not a true Kd; 50 mM Tris acetate, 10 mM magnesium acetate, 50 mM sodium acetate (pH not stated), 25 °C, 30 min; 1.5% TAE agarose gel
Conditions: protein: recombinant; label: 5' ATTO488 on strand 1; blunt

wild-type T7 RNA polymerase (Enterobacteria phage T7, sequence (P00573 whole entry): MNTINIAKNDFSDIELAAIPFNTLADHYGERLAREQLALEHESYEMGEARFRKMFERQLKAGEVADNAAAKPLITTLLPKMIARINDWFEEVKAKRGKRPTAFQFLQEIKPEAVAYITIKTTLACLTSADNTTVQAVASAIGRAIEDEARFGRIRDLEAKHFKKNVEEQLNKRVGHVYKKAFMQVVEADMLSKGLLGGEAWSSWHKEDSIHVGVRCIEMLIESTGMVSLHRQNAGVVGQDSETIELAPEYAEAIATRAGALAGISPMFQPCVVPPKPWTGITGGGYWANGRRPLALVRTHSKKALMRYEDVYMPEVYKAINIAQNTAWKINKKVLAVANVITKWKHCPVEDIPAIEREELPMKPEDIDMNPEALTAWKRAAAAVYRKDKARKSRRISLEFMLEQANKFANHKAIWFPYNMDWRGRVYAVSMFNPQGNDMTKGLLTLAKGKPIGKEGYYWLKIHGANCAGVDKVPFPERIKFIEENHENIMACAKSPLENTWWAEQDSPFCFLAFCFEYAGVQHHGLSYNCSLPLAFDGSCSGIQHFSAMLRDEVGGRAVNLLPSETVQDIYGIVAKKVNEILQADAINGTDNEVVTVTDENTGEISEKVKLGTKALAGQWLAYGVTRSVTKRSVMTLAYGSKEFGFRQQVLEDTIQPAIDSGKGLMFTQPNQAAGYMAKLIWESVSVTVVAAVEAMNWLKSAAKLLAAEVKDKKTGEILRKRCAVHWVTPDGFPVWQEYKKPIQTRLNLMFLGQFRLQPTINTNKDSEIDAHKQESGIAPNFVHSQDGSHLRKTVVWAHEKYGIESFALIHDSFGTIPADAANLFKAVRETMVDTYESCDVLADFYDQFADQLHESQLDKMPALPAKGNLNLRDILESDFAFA

B1: T7 promoter dsDNA (dsDNA)
DNA 1: GCCAGTAATACGACTCACTATAGGG
DNA 2: CCCTATAGTGAGTCGTATTACTGGC
B1: binds.
